Data reported in patent US6667388B2, “Peptide inhibitor of MMP activity and angiogenesis” (Beth Israel Deaconess Medical Center, priority 2001, dated 2003).

Key:
proMMP-9 = target: T1, proMMP-9 (Homo sapiens, UniProt P14780); test: MMP enzymatic assay with [3H]-labeled gelatin substrate, basal activity of proMMP-9; type: biochemical; details: peptide tested as MBP fusion protein; proMMP9 preincubated at 37° C. for 2 hours with 10 or 100 ng, then [3H]-labeled substrate for 1 hour; FIG. 2
T1 construct: purchased CALBIOCHEM
T1 sequence (P14780 20-707 limits assumed): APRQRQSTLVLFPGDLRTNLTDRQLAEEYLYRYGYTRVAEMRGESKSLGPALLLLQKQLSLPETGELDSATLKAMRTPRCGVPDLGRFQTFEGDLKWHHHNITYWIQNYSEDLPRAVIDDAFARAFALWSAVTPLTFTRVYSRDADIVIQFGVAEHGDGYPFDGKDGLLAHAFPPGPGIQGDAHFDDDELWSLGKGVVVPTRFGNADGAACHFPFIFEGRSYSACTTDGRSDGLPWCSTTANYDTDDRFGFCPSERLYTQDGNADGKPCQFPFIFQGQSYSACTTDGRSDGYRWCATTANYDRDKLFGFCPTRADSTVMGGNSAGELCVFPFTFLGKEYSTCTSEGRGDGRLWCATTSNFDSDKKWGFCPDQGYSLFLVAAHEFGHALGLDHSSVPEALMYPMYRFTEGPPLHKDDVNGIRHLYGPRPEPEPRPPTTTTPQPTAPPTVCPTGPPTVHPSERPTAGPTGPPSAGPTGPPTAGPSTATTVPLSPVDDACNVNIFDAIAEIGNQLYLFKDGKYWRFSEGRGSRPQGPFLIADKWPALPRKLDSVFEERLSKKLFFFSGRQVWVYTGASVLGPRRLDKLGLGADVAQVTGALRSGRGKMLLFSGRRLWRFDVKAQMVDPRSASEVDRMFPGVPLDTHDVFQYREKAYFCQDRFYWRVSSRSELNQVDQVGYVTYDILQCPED
Description: FIG. 2: is a bar graph depicting the inhibitory effect of the peptide of the invention on MMP-9 activity in an in vitro assay. ProMMP9 was preincubated at 37° C. for 2 hours with 10 or 100 ng of recombinant MBP-peptide fusion protein (MBP-29) followed by addition of [^3H]-labeled substrate for 1 hour.
(§1) For expression of the peptide as a fusion protein for subsequent use in MMP-9 inhibition assays, the cDNA encoding the peptide in SEQ ID NO:2 was cloned into the prokaryotic expression vector pMAL.c2× (NEN). The peptide was expressed as a fusion with the maltose binding protein (MBP) in the bacterial strain, BL21-codon plus (STRATAGENE). The bacteria were transformed using any standard method known in the art and grown at 37° C., as recommended by the supplier. The bacterial culture was supplemented with IPTG (isopropyl B-D-thiogalacto pyranoside) to a final concentration of 0.3 mM and grown further. The fusion protein with MBP was subsequently extracted from the bacterial cells using purified amylose resin. ProMMP (CALBIOCHEM) was used for assessing functionality of the bacterially expressed MBP-fusion peptide.
(§2) The enzymatic assays were performed using [3H]-labeled gelatin substrate. […] The radioactivity in the TCA soluble fraction was determined by a β-scintillation counter which gives a measure of the enzymatic activity of MMP-9.

mouse TSP2-TSR = target: T2, mouse TSP2-TSR (Mus musculus, UniProt Q03350); test: Yeast two-hybrid screen with TSP2-TSR as bait; type: binding; details: transactivation of reporter genes HIS3 and lacZ
T2 construct: The TSP-1 and TSP-2 TSR regions corresponded to nucleotides 1342-1861 and 1356-1876 of TSP-1 and TSP-2 respectively; expressed in transfected cells; host or cells: S. cerevisiae strain Y190 (bait vector pAS2-2)
T2 sequence (Q03350 381-552): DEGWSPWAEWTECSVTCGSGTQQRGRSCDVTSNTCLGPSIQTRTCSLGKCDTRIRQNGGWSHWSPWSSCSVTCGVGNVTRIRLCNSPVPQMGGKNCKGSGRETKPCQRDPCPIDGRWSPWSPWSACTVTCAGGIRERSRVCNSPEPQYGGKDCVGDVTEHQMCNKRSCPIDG
Description: Generally, the nomenclature and the laboratory procedures in recombinant DNA technology described here are well known to those skilled in the art and are commonly employed in the art. The peptide of SEQ ID NO:1 was isolated by the yeast two-hybrid system using the MATCHMAKER two-hybrid system from CLONTECH.
The S. cerevisiae strain Y190 (CLONTECH, CA) was used for cDNA library screening and for direct testing of protein—protein interactions. The cells were grown at 30° C. either in rich YPD media or minimal media with the appropriate amino-acid supplements. The minimal media were SD-Trp, in which tryptophan was omitted; SD-Leu, in which leucine was omitted; SD-Trp, Leu, in which both tryptophan and leucine were omitted, and SD-Trp, leu, His, in which tryptophan, leucne and histidine were lacking.
The constructs for use in the yeast two-hybrid system were based on the GAL4 two-hybrid system 2, which includes the cloning vectors pAS2-1 and pACT2 (CLONTECH, CA). […] A bait vector with a second reading frame, designated pAS2-2, was constructed by linearizing the pAS2-1 with NcoI and filling-in using T4 DNA polymerase. […]
During the screen, the interaction between the bait (TSP1-TSR or TSP2-TSR) and the prey (NIH3T3 translational library) were assessed by their ability to transactivate the reporter genes HIS3 and lacZ. […]

[1] = target: T3, proMMP-9 activated by MMP3 (Homo sapiens, UniProt P14780); test: MMP enzymatic assay with [3H]-labeled gelatin substrate, proMMP-9 activated by MMP3; type: biochemical; details: peptide tested as MBP fusion protein; proMMP-9 activated with MBP-MMP3, incubated for 2 hours; FIG. 3
T3 construct: purchased CALBIOCHEM
T3 sequence (P14780 107-707 limits assumed): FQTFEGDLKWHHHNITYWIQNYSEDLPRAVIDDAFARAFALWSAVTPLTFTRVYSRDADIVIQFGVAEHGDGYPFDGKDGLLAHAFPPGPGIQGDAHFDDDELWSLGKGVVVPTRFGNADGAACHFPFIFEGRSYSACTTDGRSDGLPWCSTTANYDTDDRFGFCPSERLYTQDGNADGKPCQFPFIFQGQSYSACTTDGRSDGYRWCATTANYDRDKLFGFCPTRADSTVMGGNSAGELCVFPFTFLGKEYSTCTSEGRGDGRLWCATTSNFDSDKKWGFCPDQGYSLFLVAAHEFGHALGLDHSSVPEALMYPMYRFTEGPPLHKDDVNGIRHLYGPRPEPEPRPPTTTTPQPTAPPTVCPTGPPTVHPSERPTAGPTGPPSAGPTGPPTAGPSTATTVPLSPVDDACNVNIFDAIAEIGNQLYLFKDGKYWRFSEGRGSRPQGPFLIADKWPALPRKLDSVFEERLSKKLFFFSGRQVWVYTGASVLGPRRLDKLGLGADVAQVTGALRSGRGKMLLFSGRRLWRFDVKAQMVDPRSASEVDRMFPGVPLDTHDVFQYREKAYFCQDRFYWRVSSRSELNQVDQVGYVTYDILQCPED
Description: FIG. 3: is a bar graph depicting the inhibitory effect of the peptide of the invention on activated MMP-9 in an in vitro assay. ProMMP-9 activated with MBP-MMP3 was incubated for 2 hours with control protein or recombinant MBP-peptide fusion protein (MBP-29).
as §1, §2

## APWNCCPVSCCGNCCFFRAL QSCPQG (APWNCCPVSCCGNCCFFRALQSCPQG; OTHER INFORMATION: Peptide Inhibitor of MMP- 9 Activity and Angiogenesis) [peptide of SEQ ID NO:1]
proMMP-9
  inhibition of MMP-9 activity (basal activity of proMMP-9): inhibited MMP-9 activity in a dose-dependent manner
Mouse TSP2-TSR
  interaction with TSP-2: isolated as an interactor of TSP-2
[1]
  inhibition of MMP-3 dependent activation of MMP (activated MMP-9): inhibited in a dose-dependent manner
